Tests used:
[1] = target: T1, AN4702 protein of Aspergillus nidulans (uniprot entry Q5B428), native N-terminally histidine-methylated protein, Q5B428
T1 chain: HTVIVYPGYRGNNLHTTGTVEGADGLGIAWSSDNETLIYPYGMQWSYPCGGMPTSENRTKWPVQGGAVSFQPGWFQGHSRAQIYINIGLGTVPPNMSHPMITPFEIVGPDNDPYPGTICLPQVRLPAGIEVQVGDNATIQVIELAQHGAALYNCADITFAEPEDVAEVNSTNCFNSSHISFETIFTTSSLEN

[2] = target: T2, AA9A LPMO from Lentinus similis (LsAA9A), secreted by K. phaffii, His6-tagged
T2 chain: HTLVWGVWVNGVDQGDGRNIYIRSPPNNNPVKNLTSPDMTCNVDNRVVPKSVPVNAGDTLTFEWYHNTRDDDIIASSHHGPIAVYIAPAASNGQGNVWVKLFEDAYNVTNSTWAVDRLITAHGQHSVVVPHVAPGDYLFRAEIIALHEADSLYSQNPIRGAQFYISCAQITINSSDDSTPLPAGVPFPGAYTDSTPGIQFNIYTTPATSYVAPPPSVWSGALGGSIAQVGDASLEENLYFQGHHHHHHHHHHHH

B1: Truncated variant of AN4663 lacking the transmembrane region (positions 1-224) (protein)
chain: LNNIIADDGFALVARQDSTTGYISVLDNLEDGFRVMRCDHSLLGGQWIKKRPNYTPPAVKDPIYAVFTMLEAVRLVETAHGIPRADAGSNALVIGLGIGTTPGALISHGIDTTIVEIDPVVHKYALQYFDLPENHTPIIEDARAFVQRSRNAPQPKQYDYIVHDVFTGGAEPVELFTYEFISGLHALLKDDGVIAINYAGDISLYSTALSIRTIKSIFPTCRLFREAAAPEIGPDFTNMVIFCTKSRGAPITFRDPVPEDFLGSRFRSRYLVPKHEVDAAQFDNVGLEDGPQGHGRRVLVDKEVGRLHKYQDRSALEHWGIMRTVLPDRVWEGW
[1]
  PRM quantification of methylated and unmethylated N-terminal peptide after truncation of AN4663: the expression of this variant abolished the N-terminal histidine methylation capacity of the enzyme

B2: AN4663 N-terminal histidine methyltransferase (NHMT) from Aspergillus nidulans (protein)
chain: MAPFRSIYEKDATKKLVVGAALLVLAAFYSYVFLLTLAPVYGSTPSHIFHGYGVGIAGVAGWFSKDIVDRVSGRKAIYAIPVLAFFLPVVQYFVSQQSSALGNPAGPIFTEVLALYPLVLLSVACAGKLVQAGLNLQRHGDLVAEHIPLLGSYVIYSAGEHLIKAFLSRFIGSTVLLSRAGLQILIAIFYAAAVPSKALLLAIPAFLFSVTSNTHLPLGHTTTALNNIIADDGFALVARQDSTTGYISVLDNLEDGFRVMRCDHSLLGGQWIKKRPNYTPPAVKDPIYAVFTMLEAVRLVETAHGIPRADAGSNALVIGLGIGTTPGALISHGIDTTIVEIDPVVHKYALQYFDLPENHTPIIEDARAFVQRSRNAPQPKQYDYIVHDVFTGGAEPVELFTYEFISGLHALLKDDGVIAINYAGDISLYSTALSIRTIKSIFPTCRLFREAAAPEIGPDFTNMVIFCTKSRGAPITFRDPVPEDFLGSRFRSRYLVPKHEVDAAQFDNVGLEDGPQGHGRRVLVDKEVGRLHKYQDRSALEHWGIMRTVLPDRVWEGW
[1]
  PRM assay of N-terminal histidine methylation of the AN4702 peptide in A. nidulans knockout strains: the knockout of the gene [SEQ ID NO.: 1] encoding AN4663 (uniprot entry Q5B467) [SEQ ID NO.: 2] abolished the N-terminal histidine methylation on the monitored peptides and conversely, the unmethylated form was observed
[2]
  methylation stoichiometry of the N-terminal peptide of secreted LsAA9A (targeted MS), Amy signal peptide construct, co-expression in K. phaffii: a methylation stoichiometry on average of 65% of the peptides for the Amy signal peptide
  methylation stoichiometry of the N-terminal peptide of secreted LsAA9A (targeted MS), native signal peptide construct, co-expression in K. phaffii: 29% for the native signal peptide

B3: N-terminally mRFP-tagged AN4663 (strain NID2789) (protein)
chain: MAPFRSIYEKDATKKLVVGAALLVLAAFYSYVFLLTLAPVYGSTPSHIFHGYGVGIAGVAGWFSKDIVDRVSGRKAIYAIPVLAFFLPVVQYFVSQQSSALGNPAGPIFTEVLALYPLVLLSVACAGKLVQAGLNLQRHGDLVAEHIPLLGSYVIYSAGEHLIKAFLSRFIGSTVLLSRAGLQILIAIFYAAAVPSKALLLAIPAFLFSVTSNTHLPLGHTTTALNNIIADDGFALVARQDSTTGYISVLDNLEDGFRVMRCDHSLLGGQWIKKRPNYTPPAVKDPIYAVFTMLEAVRLVETAHGIPRADAGSNALVIGLGIGTTPGALISHGIDTTIVEIDPVVHKYALQYFDLPENHTPIIEDARAFVQRSRNAPQPKQYDYIVHDVFTGGAEPVELFTYEFISGLHALLKDDGVIAINYAGDISLYSTALSIRTIKSIFPTCRLFREAAAPEIGPDFTNMVIFCTKSRGAPITFRDPVPEDFLGSRFRSRYLVPKHEVDAAQFDNVGLEDGPQGHGRRVLVDKEVGRLHKYQDRSALEHWGIMRTVLPDRVWEGW
[1]
  PRM assay of N-terminal histidine methylation in A. nidulans (strain NID2789): methylation of LPMOs was stoichiometric for the N-terminally tagged version

B4: AN4663 with E340A substitution (strain NID2787) (protein)
chain: MAPFRSIYEKDATKKLVVGAALLVLAAFYSYVFLLTLAPVYGSTPSHIFHGYGVGIAGVAGWFSKDIVDRVSGRKAIYAIPVLAFFLPVVQYFVSQQSSALGNPAGPIFTEVLALYPLVLLSVACAGKLVQAGLNLQRHGDLVAEHIPLLGSYVIYSAGEHLIKAFLSRFIGSTVLLSRAGLQILIAIFYAAAVPSKALLLAIPAFLFSVTSNTHLPLGHTTTALNNIIADDGFALVARQDSTTGYISVLDNLEDGFRVMRCDHSLLGGQWIKKRPNYTPPAVKDPIYAVFTMLEAVRLVETAHGIPRADAGSNALVIGLGIGTTPGALISHGIDTTIVAIDPVVHKYALQYFDLPENHTPIIEDARAFVQRSRNAPQPKQYDYIVHDVFTGGAEPVELFTYEFISGLHALLKDDGVIAINYAGDISLYSTALSIRTIKSIFPTCRLFREAAAPEIGPDFTNMVIFCTKSRGAPITFRDPVPEDFLGSRFRSRYLVPKHEVDAAQFDNVGLEDGPQGHGRRVLVDKEVGRLHKYQDRSALEHWGIMRTVLPDRVWEGW
[1]
  PRM assay of N-terminal histidine methylation in A. nidulans (strain NID2787): Site-directed mutagenesis of this glutamate to an alanine (E340A) lead to a loss of N-terminal histidine methylation generating a similar methylation phenotype to a complete knockout of AN4663

B5: C-terminally mRFP-tagged AN4663 (strain NID2794) (protein)
chain: MAPFRSIYEKDATKKLVVGAALLVLAAFYSYVFLLTLAPVYGSTPSHIFHGYGVGIAGVAGWFSKDIVDRVSGRKAIYAIPVLAFFLPVVQYFVSQQSSALGNPAGPIFTEVLALYPLVLLSVACAGKLVQAGLNLQRHGDLVAEHIPLLGSYVIYSAGEHLIKAFLSRFIGSTVLLSRAGLQILIAIFYAAAVPSKALLLAIPAFLFSVTSNTHLPLGHTTTALNNIIADDGFALVARQDSTTGYISVLDNLEDGFRVMRCDHSLLGGQWIKKRPNYTPPAVKDPIYAVFTMLEAVRLVETAHGIPRADAGSNALVIGLGIGTTPGALISHGIDTTIVEIDPVVHKYALQYFDLPENHTPIIEDARAFVQRSRNAPQPKQYDYIVHDVFTGGAEPVELFTYEFISGLHALLKDDGVIAINYAGDISLYSTALSIRTIKSIFPTCRLFREAAAPEIGPDFTNMVIFCTKSRGAPITFRDPVPEDFLGSRFRSRYLVPKHEVDAAQFDNVGLEDGPQGHGRRVLVDKEVGRLHKYQDRSALEHWGIMRTVLPDRVWEGW
[1]
  PRM assay of N-terminal histidine methylation in A. nidulans (strain NID2794): the C-terminal mRFP tagged version was unable to methylate the LPMOs

From US20250236850
